B1: MdPL-like-P2 probe (dsDNA)
DNA 1: AAGTCAACTAAAAAAGTCAACGTCTGACCGTTGACTGGTCAAAG
DNA 2: CTTTGACCAGTCAACGGTCAGACGTTGACTTTTTTAGTTGACTT
B2: MdPL-like-P3 probe (dsDNA)
DNA 1: AGTTGACCATTGACCGTTGACTGAGTCAACAGTCAAGGTCAACT
DNA 2: AGTTGACCTTGACTGTTGACTCAGTCAACGGTCAATGGTCAACT
B3: MdDMR6 probe (dsDNA)
DNA 1: ATATTGTTTTCTGCATTTTTGACTTAATTTTTATAAATTAA
DNA 2: TTAATTTATAAAAATTAAGTCAAAAATGCAGAAAACAATAT
B4: MdPL-like-P1 probe (dsDNA)
DNA 1: AGGAGTACCTTTGGTCAAACTATATTCAAA
DNA 2: TTTGAATATAGTTTGACCAAAGGTACTCCT

Target: MdWRKY17 (Malus x domestica, UniProt A0A9E6GT21 1-512)
Assay: EMSA; Chemiluminescent EMSA Kit (Beyotime); buffer, salt, pH and temperature not stated
Conditions: protein: recombinant; tags: His (pET32a); label: biotin; blunt

Chain of MdWRKY17 (A0A9E6GT21 entry or part of it): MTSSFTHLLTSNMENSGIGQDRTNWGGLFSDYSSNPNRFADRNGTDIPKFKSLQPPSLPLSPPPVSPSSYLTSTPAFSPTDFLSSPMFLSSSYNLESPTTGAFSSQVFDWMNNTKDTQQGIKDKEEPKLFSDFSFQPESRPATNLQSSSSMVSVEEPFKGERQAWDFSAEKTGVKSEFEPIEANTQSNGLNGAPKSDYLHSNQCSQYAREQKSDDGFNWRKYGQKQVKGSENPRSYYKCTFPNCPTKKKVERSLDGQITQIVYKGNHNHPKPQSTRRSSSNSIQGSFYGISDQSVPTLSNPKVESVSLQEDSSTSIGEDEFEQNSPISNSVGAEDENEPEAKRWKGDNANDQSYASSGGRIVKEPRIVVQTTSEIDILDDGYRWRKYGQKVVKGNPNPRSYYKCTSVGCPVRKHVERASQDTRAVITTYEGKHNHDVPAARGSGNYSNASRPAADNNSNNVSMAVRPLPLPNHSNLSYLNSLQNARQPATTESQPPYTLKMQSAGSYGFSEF

Binder	binding result
B1	binds
B2	binds
B3	binds
B4	binds
